In patent publication US8586570:

system: PKCα-S10

Protein	phosphorylation activity (1 µM peptide, 2 ng kinase)
PKCν (enzyme, UniProt O94806 1-890, looked up, species assumed) Serine/threonine-protein kinase D3: MSANNSPPSAQKSVLPTAIPAVLPAASPCSSPKTGLSARLSNGSFSAPSLTNSRGSVHTVSFLLQIGLTRESVTIEAQELSLSAVKDLVCSIVYQKFPECGFFGMYDKILLFRHDMNSENILQLITSADEIHEGDLVEVVLSALATVEDFQIRPHTLYVHSYKAPTFCDYCGEMLWGLVRQGLKCEGCGLNYHKRCAFKIPNNCSGVRKRRLSNVSLPGPGLSVPRPLQPEYVALPSEESHVHQEPSKRIPSWSGRPIWMEKMVMCRVKVPHTFAVHSYTRPTICQYCKRLLKGLFRQGMQCKDCKFNCHKRCASKVPRDCLGEVTFNGEPSSLGTDTDIPMDIDNNDINSDSSRGLDDTEEPSPPEDKMFFLDPSDLDVERDEEAVKTISPSTSNNIPLMRVVQSIKHTKRKSSTMVKEGWMVHYTSRDNLRKRHYWRLDSKCLTLFQNESGSKYYKEIPLSEILRISSPRDFTNISQGSNPHCFEIITDTMVYFVGENNGDSSHNPVLAATGVGLDVAQSWEKAIRQALMPVTPQASVCTSPGQGKDHKDLSTSISVSNCQIQENVDISTVYQIFADEVLGSGQFGIVYGGKHRKTGRDVAIKVIDKMRFPTKQESQLRNEVAILQNLHHPGIVNLECMFETPERVFVVMEKLHGDMLEMILSSEKSRLPERITKFMVTQILVALRNLHFKNIVHCDLKPENVLLASAEPFPQVKLCDFGFARIIGEKSFRRSVVGTPAYLAPEVLRSKGYNRSLDMWSVGVIIYVSLSGTFPFNEDEDINDQIQNAAFMYPPNPWREISGEAIDLINNLLQVKMRKRYSVDKSLSHPWLQDYQTWLDLREFETRIGERYITHESDDARWEIHAYTHNLVYPKHFIMAPNPDDMEEDP	no activity is observed with PKCδ, PKCµ, and PKCν
PKCζ (enzyme, UniProt Q05513 1-592, looked up, species assumed) Protein kinase C zeta type: MPSRTGPKMEGSGGRVRLKAHYGGDIFITSVDAATTFEELCEEVRDMCRLHQQHPLTLKWVDSEGDPCTVSSQMELEEAFRLARQCRDEGLIIHVFPSTPEQPGLPCPGEDKSIYRRGARRWRKLYRANGHLFQAKRFNRRAYCGQCSERIWGLARQGYRCINCKLLVHKRCHGLVPLTCRKHMDSVMPSQEPPVDDKNEDADLPSEETDGIAYISSSRKHDSIKDDSEDLKPVIDGMDGIKISQGLGLQDFDLIRVIGRGSYAKVLLVRLKKNDQIYAMKVVKKELVHDDEDIDWVQTEKHVFEQASSNPFLVGLHSCFQTTSRLFLVIEYVNGGDLMFHMQRQRKLPEEHARFYAAEICIALNFLHERGIIYRDLKLDNVLLDADGHIKLTDYGMCKEGLGPGDTTSTFCGTPNYIAPEILRGEEYGFSVDWWALGVLMFEMMAGRSPFDIITDNPDMNTEDYLFQVILEKPIRIPRFLSVKASHVLKGFLNKDPKERLGCRPQTGFSDIKSHAFFRSIDWDLLEKKQALPPFQPQITDDYGLDNFDTQFTSEPVQLTPDDEDAIKRIDQSEFEGFEYINPLLLSTEESV	very little activity is detected with PKCε, PKCζ, PKCη and PKCι
PKCµ (enzyme, UniProt Q15139 1-912, looked up, species assumed) Serine/threonine-protein kinase D1: MSAPPVLRPPSPLLPVAAAAAAAAAALVPGSGPGPAPFLAPVAAPVGGISFHLQIGLSREPVLLLQDSSGDYSLAHVREMACSIVDQKFPECGFYGMYDKILLFRHDPTSENILQLVKAASDIQEGDLIEVVLSASATFEDFQIRPHALFVHSYRAPAFCDHCGEMLWGLVRQGLKCEGCGLNYHKRCAFKIPNNCSGVRRRRLSNVSLTGVSTIRTSSAELSTSAPDEPLLQKSPSESFIGREKRSNSQSYIGRPIHLDKILMSKVKVPHTFVIHSYTRPTVCQYCKKLLKGLFRQGLQCKDCRFNCHKRCAPKVPNNCLGEVTINGDLLSPGAESDVVMEEGSDDNDSERNSGLMDDMEEAMVQDAEMAMAECQNDSGEMQDPDPDHEDANRTISPSTSNNIPLMRVVQSVKHTKRKSSTVMKEGWMVHYTSKDTLRKRHYWRLDSKCITLFQNDTGSRYYKEIPLSEILSLEPVKTSALIPNGANPHCFEITTANVVYYVGENVVNPSSPSPNNSVLTSGVGADVARMWEIAIQHALMPVIPKGSSVGTGTNLHRDISVSISVSNCQIQENVDISTVYQIFPDEVLGSGQFGIVYGGKHRKTGRDVAIKIIDKLRFPTKQESQLRNEVAILQNLHHPGVVNLECMFETPERVFVVMEKLHGDMLEMILSSEKGRLPEHITKFLITQILVALRHLHFKNIVHCDLKPENVLLASADPFPQVKLCDFGFARIIGEKSFRRSVVGTPAYLAPEVLRNKGYNRSLDMWSVGVIIYVSLSGTFPFNEDEDIHDQIQNAAFMYPPNPWKEISHEAIDLINNLLQVKMRKRYSVDKTLSHPWLQDYQTWLDLRELECKIGERYITHESDDLRWEKYAGEQGLQYPTHLINPSASHSDTPETEETEMKALGERVSIL	no activity is observed with PKCδ, PKCµ, and PKCν
PKCι (enzyme, UniProt P41743 2-596, looked up, species assumed) Protein kinase C iota type: PTQRDSSTMSHTVAGGGSGDHSHQVRVKAYYRGDIMITHFEPSISFEGLCNEVRDMCSFDNEQLFTMKWIDEEGDPCTVSSQLELEEAFRLYELNKDSELLIHVFPCVPERPGMPCPGEDKSIYRRGARRWRKLYCANGHTFQAKRFNRRAHCAICTDRIWGLGRQGYKCINCKLLVHKKCHKLVTIECGRHSLPQEPVMPMDQSSMHSDHAQTVIPYNPSSHESLDQVGEEKEAMNTRESGKASSSLGLQDFDLLRVIGRGSYAKVLLVRLKKTDRIYAMKVVKKELVNDDEDIDWVQTEKHVFEQASNHPFLVGLHSCFQTESRLFFVIEYVNGGDLMFHMQRQRKLPEEHARFYSAEISLALNYLHERGIIYRDLKLDNVLLDSEGHIKLTDYGMCKEGLRPGDTTSTFCGTPNYIAPEILRGEDYGFSVDWWALGVLMFEMMAGRSPFDIVGSSDNPDQNTEDYLFQVILEKQIRIPRSLSVKAASVLKSFLNKDPKERLGCHPQTGFADIQGHPFFRNVDWDMMEQKQVVPPFKPNISGEFGLDNFDSQFTNEPVQLTPDDDDIVRKIDQSEFEGFEYINPLLMSAEECV	very little activity is detected with PKCε, PKCζ, PKCη and PKCι
